Literature values, collected in publication PMC4070439.

Key:
[1] = target: IL-12Rβ1 (low affinity site) (Mus musculus) (UniProt Q60837)
[2] = target: IL-12Rβ1 (high affinity site) (Mus musculus) (UniProt Q60837)

IL-12 p40 homodimer (from UniProt P43432)
Kd [1]: 15 nM
Kd [2]: 0.005 nM
